{"source": "patent US8029979B2", "about": "“Method for determining the substrate specificity of an enzyme” (JPT Peptide Technologies GmbH, priority 2001, dated 2011)", "key": {"protein kinase A [1]": {"molecular_target": "T1, protein kinase A (Bos taurus, UniProt P00517)", "T1 construct": "purchased Sigma P26452 as printed", "assay": "Incubation of modified glass surface with different concentrations of protein kinase A (FIG. 4, Example 25)", "format": "biochemical", "conditions": "protein kinase A 1 U/mL or 10 U/mL, 30 min at 25° C.", "protocol": "(§1) FIG. 3. The peptide Leu-Arg-Arg-Ala-Ser-Leu-Gly-NH2, modified at the N-terminus with the dipeptide cysteinyl-β-alanine, was coupled to maleinimido-functionalised surfaces by a Michael addition (maleinimido-functionalised glass surface, Sigma, Silane-Prep™, S4651; as well as maleinimidobutyryl-β-alanine-functionalised, modified polypropylene membranes). The modified glass surfaces were first pre-incubated for 10 minutes using 20 mL of 100 μM ATP solution in 50 mM of sodium phosphate buffer pH 7.5. […] (Example 31). The phosphorylation of the corresponding peptides was detected using a FUJIFILM PhosphorImager. The signal intensity of the respective spot is given below the figures. […] FIG. 4. […] After incubation for 30 min at 25° C. the phosphorylation of the corresponding peptides was detected using a FUJIFILM PhosphorImager. […] After incubation for 30 min at 25° C. the phosphorylation of the corresponding peptides was detected using a FUJIFILM PhosphorImager. […]\nAfter drying the glass surface the quantity of radioactive phosphate incorporated in the glass-surface-bound peptides was determined using a PhosphorImager system (FLA-3000, FUJIFILM) (see FIG. 4)."}, "protein kinase A [2]": {"molecular_target": "T1, protein kinase A", "assay": "Incubation of modified glass surface with protein kinase A under cover glass (FIG. 5, Example 26)", "format": "biochemical", "conditions": "protein kinase A 10 U/mL, 30 min at 25° C.", "protocol": "as §1, with “4. The control peptide Leu-Arg-Arg-Ala-Ala-Leu-Gly-NH2, the peptide […] and the synthesis raw product […], each modified at the N-terminus with the dipeptide cysteinyl-β-alanine, were coupled to a maleinimido-functionalised glass surface by a Michael addition (Example 1).” for “4.”"}}, "note": "BA1 = not defined here", "data": [{"substance": "Cys-BA1-Leu-Arg-Arg-Ala-Ser-Leu-Gly-NH2 ({Cys-BA1}-LRRASLG-NH2; reading uncertain; also: printed as Cys-BA1-Leu-Arg-Arg-Ala-Ser-Leu-Gly-NH2) [compound 85]", "values": [{"measurement": "signal intensity for the purified amino acid sequence higher than that for the corresponding control amino acid sequence", "setting": "protein kinase A [1]", "result": "approximately 300 times"}, {"measurement": "signal intensity for the purified amino acid sequence higher than that for the synthesis product", "setting": "protein kinase A [1]", "result": 500, "unit": "%"}, {"measurement": "signal intensity for the substrate amino acid sequence higher than that for the control product", "setting": "protein kinase A [2]", "result": 800, "unit": "%"}]}]}
